Values quoted from earlier work, collected in patent US10870689B2, “ApoM-Fc fusion proteins, complexes thereof with sphingosine 1-phosphate (S1P), and methods for treating vascular and non-vascular diseases” (Children's Medical Center Corporation, priority 2016, dated 2020).

What was measured:
[1] = Sevvana et al. 2010; read-out: relative affinity for S1P
[2] = not associated with HDL; Faber et al. 2006

Row | Molecule | Kd [1] | in vivo half-life [2]
1 | recombinant ApoM: Bacterially expressed recombinant human ApoM (protein, UniProt O95445 1-188, looked up) Apolipoprotein M: MFHQIWAALLYFYGIILNSIYQCPEHSQLTTLGVDGKEFPEVHLGQWYFIAGAAPTKEELATFDPVDNIVFNMAAGSAPMQLHLRATIRMKDGLCVPRKWIYHLTEGSTDLRTEGRPDMKTELFSSSCPGGIMLNETGQGYQRFLLYNRSPHPPEKCVEEFKSLTSCLDSKAFLLTPRNQEACELSNN | ~1000 nM | –
2 | Free ApoM: ApoM that is not associated with HDL (protein, UniProt O95445 1-188, looked up) Apolipoprotein M: MFHQIWAALLYFYGIILNSIYQCPEHSQLTTLGVDGKEFPEVHLGQWYFIAGAAPTKEELATFDPVDNIVFNMAAGSAPMQLHLRATIRMKDGLCVPRKWIYHLTEGSTDLRTEGRPDMKTELFSSSCPGGIMLNETGQGYQRFLLYNRSPHPPEKCVEEFKSLTSCLDSKAFLLTPRNQEACELSNN | – | less than 15 minutes
